According to patent US20070244108A1:

Substrate: C[C@]12CCC(=O)C=C1CCC1C2C(=O)C[C@@]2(C)C1CC[C@]2(O)C(=O)CO
Test: cells, lysate or membranes named

B1: human hepatic microsomal 11β HSD1 (Homo sapiens) (protein)
chain: MAFMKKYLLPILGLFMAYYYYSANEEFRPEMLQGKKVIVTGASKGIGREMAYHLAKMGAHVVVTARSKETLQKVVSHCLELGAASAHYIAGTMEDMTFAEQFVAQAGKLMGGLDMLILNHITNTSLNLFHDDIHHVRKSMEVNFLSYVVLTVAALPMLKQSNGSIVVVSSLAGKVAYPMVAAYSASKFALDGFFSSIRKEYSVSRVNVSITLCVLGLIDTETAMKAVSGIVHMQAAPKEECALEIIKGGALRQEEVYYDSSLWTTLLIRNPCRKILEFLYSTSYNMDRFINK
B1 was tested, and the Km (other: 10 μg microsomal protein, 30 min at 37° C., Buffer 1, TLC assay) was 0.66 µM.

B2: Human 11β HSD1 (Homo sapiens) (protein)
chain: B1 chain
For B2, the Km (other: RIA detection, 10 μg/well microsomal protein, 30 min, buffer 3, 37.0 °C) was 0.7 µM.
